Where “and” joins values, the source holds several entries; their conditions need not be identical. Equal values may be shown once.

From PMC6566107, “Molecular Analysis of Protein-Protein Interactions in the Ethylene Pathway in the Different Ethylene Receptor Subfamilies” (Frontiers in Plant Science, 2019) come the findings set out here.

The labels stand for the following.
B2: Arabidopsis thaliana ethylene receptor ETR2 (AtETR2), full-length, type-II subfamily (receptor, UniProt Q0WPQ2 1-773, looked up)
chain: MVKEIASWLLILSMVVFVSPVLAINGGGYPRCNCEDEGNSFWSTENILETQRVSDFLIAVAYFSIPIELLYFVSCSNVPFKWVLFEFIAFIVLCGMTHLLHGWTYSAHPFRLMMAFTVFKMLTALVSCATAITLITLIPLLLKVKVREFMLKKKAHELGREVGLILIKKETGFHVRMLTQEIRKSLDRHTILYTTLVELSKTLGLQNCAVWMPNDGGTEMDLTHELRGRGGYGGCSVSMEDLDVVRIRESDEVNVLSVDSSIARASGGGGDVSEIGAVAAIRMPMLRVSDFNGELSYAILVCVLPGGTPRDWTYQEIEIVKVVADQVTVALDHAAVLEESQLMREKLAEQNRALQMAKRDALRASQARNAFQKTMSEGMRRPMHSILGLLSMIQDEKLSDEQKMIVDTMVKTGNVMSNLVGDSMDVPDGRFGTEMKPFSLHRTIHEAACMARCLCLCNGIRFLVDAEKSLPDNVVGDERRVFQVILHIVGSLVKPRKRQEGSSLMFKVLKERGSLDRSDHRWAAWRSPASSADGDVYIRFEMNVENDDSSSQSFASVSSRDQEVGDVRFSGGYGLGQDLSFGVCKKVVQLIHGNISVVPGSDGSPETMSLLLRFRRRPSISVHGSSESPAPDHHAHPHSNSLLRGLQVLLVDTNDSNRAVTRKLLEKLGCDVTAVSSGFDCLTAIAPGSSSPSTSFQVVVLDLQMAEMDGYEVAMRIRSRSWPLIVATTVSLDEEMWDKCAQIGINGVVRKPVVLRAMESELRRVLLQADQLL
modifications: Alexa Fluor 488 succinimidyl-ester label where used as the labeled partner in MST
notes: ETR2, Arabidopsis thaliana, UniProt Q0WPQ2, full-length, codon optimized cDNA according to NCBI NM_113216.3; The thrombin site of pGEX-4T-1 was changed to a TEV site (ENLYFQG); No cleavage is described; The purified protein runs at an apparent 120 kDa, so GST is probably still attached; The same construct was used with and without the Alexa Fluor 488 label; source: E. coli C43 (DE3), solubilised …

The target in series [1] is B2. Put plainly: MST; 40 nM Alexa Fluor 488-labeled receptor (AtETR1 or AtETR2); unlabeled AtETR1 or AtETR2 (4 µM to 0.49 nM) or ETR1-TM C4SC6S (16 µM to 0.98 nM) titrated; 0.0075% (w/v) FosCholine-16; 60% MST power; 1:1 model. Particulars: both partners purified.
Series [2] concerns the molecule itself. The description is as above.
Series [3] addresses T1, Arabidopsis thaliana Raf-like protein kinase CTR1 (AtCTR1), full-length, fused to mCerulean (Arabidopsis thaliana, UniProt Q05609 1-821, Alexa Fluor 488 succinimidyl-ester label).
T1 construct: CONSTITUTIVE TRIPLE RESPONSE 1 (CTR1), Arabidopsis thaliana, UniProt Q05609, full-length cDNA according to NCBI NM_120454.4; The CTR1 coding region was extended by mCerulean in pET30a; source: E. coli BL21 (DE3) with pRARE, purified (Ni-NTA)
T1 sequence (looked up): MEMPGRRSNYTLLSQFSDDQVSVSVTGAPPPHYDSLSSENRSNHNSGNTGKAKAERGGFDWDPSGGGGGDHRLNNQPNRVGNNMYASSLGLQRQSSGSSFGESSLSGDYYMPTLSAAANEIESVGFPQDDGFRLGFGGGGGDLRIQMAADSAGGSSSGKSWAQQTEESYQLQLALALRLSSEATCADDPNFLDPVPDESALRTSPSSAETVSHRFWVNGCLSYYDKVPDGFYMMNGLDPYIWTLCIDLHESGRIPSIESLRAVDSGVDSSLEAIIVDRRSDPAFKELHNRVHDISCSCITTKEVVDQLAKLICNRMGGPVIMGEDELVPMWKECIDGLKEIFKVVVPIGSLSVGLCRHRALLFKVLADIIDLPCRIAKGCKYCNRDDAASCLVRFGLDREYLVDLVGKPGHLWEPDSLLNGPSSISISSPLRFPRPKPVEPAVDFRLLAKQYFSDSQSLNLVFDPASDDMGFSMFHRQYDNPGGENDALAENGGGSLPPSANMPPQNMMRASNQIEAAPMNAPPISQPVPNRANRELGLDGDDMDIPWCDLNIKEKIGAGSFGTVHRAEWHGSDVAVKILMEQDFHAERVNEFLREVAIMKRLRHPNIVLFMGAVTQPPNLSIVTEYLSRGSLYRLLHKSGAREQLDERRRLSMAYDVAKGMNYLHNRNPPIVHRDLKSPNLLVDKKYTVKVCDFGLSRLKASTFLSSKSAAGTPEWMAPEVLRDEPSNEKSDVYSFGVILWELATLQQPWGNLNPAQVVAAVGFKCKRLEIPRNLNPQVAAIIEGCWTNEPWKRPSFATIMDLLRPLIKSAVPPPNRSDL
In words: MST; Alexa Fluor 488-labeled AtCTR1 (MST buffer 3; 50 nM with AtETR1, 20 nM with AtETR2); unlabeled receptors (MST buffer 2) titrated 4 µM to 0.98 nM; 60% MST power; premium capillaries and 10 min incubation for AtETR2; 1:1 model. Particulars: both partners purified.

Series [4] concerns the target T2, Isolated transmembrane domain of AtETR1 (aa 1-157) with C4S and C6S (Arabidopsis thaliana, UniProt P49333 1-157, C4S | C6S).
T2 sequence: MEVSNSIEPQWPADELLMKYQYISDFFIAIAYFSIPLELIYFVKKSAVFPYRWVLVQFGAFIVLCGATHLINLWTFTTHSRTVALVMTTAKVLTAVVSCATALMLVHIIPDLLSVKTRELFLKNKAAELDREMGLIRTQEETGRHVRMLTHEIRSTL
In words: MST; ETR1 Alexa488-labeled.

The target in series [5] is T3, Arabidopsis thaliana EIN2 C-terminus (AtEIN2 479-1294), soluble cytosolic domain (Arabidopsis thaliana, UniProt Q9S814 479-1294, Alexa Fluor 488 succinimidyl-ester label where used as the labeled partner in MST).
T3 construct: source: recombinant, expressed and purified as previously described (Bisson et al., 2016)
T3 sequence (looked up): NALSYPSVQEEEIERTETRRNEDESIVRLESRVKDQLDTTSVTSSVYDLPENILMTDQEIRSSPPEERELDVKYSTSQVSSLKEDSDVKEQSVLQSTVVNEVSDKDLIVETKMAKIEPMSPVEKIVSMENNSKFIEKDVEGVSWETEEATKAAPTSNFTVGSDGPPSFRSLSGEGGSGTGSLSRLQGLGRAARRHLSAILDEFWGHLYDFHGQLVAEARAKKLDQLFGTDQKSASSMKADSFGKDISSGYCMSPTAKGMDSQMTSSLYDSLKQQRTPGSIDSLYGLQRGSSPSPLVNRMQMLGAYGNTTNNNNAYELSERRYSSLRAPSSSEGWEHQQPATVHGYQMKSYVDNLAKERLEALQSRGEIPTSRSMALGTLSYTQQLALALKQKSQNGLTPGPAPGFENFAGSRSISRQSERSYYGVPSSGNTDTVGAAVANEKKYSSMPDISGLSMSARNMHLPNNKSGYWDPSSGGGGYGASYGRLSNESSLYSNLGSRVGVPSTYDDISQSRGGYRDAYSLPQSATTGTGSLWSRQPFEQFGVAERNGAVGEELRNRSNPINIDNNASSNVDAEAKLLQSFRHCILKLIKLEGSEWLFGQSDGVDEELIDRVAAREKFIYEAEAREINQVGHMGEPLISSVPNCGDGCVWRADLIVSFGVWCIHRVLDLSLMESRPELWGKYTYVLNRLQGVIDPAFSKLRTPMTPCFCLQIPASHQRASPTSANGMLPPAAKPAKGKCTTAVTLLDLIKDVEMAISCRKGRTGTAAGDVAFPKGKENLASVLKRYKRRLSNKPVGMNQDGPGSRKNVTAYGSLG
In words: MST; 20 nM Alexa Fluor 488-labeled AtETR2 (MST buffer 1: 50 mM HEPES/NaOH pH 7.8, 300 mM NaCl, 5% glycerol, 0.015% FosCholine-16); unlabeled AtEIN2 479-1294 (MST buffer 3) titrated 2 µM to 0.98 nM; 20% MST power; 1:1 model; apparent Kd. The conditions noted are these: both partners purified.

In series [6] the target is T3, Arabidopsis thaliana EIN2 C-terminus …. In words: MST; 75 nM Alexa Fluor 488-labeled AtEIN2 479-1294; unlabeled AtETR2 titrated 4 µM to 1.95 nM; ambient temperature; 60% MST power; 1:1 model; apparent Kd. The conditions noted are these: both partners purified.
Series [7] deals with T2, Isolated transmembrane domain of AtETR1 …. Put plainly: MST; ETR2 Alexa488-labeled.

B1: Arabidopsis thaliana ethylene receptor ETR1 (AtETR1), full-length, type-I subfamily (receptor, UniProt P49333 1-738, looked up)
chain: MEVCNCIEPQWPADELLMKYQYISDFFIAIAYFSIPLELIYFVKKSAVFPYRWVLVQFGAFIVLCGATHLINLWTFTTHSRTVALVMTTAKVLTAVVSCATALMLVHIIPDLLSVKTRELFLKNKAAELDREMGLIRTQEETGRHVRMLTHEIRSTLDRHTILKTTLVELGRTLALEECALWMPTRTGLELQLSYTLRHQHPVEYTVPIQLPVINQVFGTSRAVKISPNSPVARLRPVSGKYMLGEVVAVRVPLLHLSNFQINDWPELSTKRYALMVLMLPSDSARQWHVHELELVEVVADQVAVALSHAAILEESMRARDLLMEQNVALDLARREAETAIRARNDFLAVMNHEMRTPMHAIIALSSLLQETELTPEQRLMVETILKSSNLLATLMNDVLDLSRLEDGSLQLELGTFNLHTLFREVLNLIKPIAVVKKLPITLNLAPDLPEFVVGDEKRLMQIILNIVGNAVKFSKQGSISVTALVTKSDTRAADFFVVPTGSHFYLRVKVKDSGAGINPQDIPKIFTKFAQTQSLATRSSGGSGLGLAISKRFVNLMEGNIWIESDGLGKGCTAIFDVKLGISERSNESKQSGIPKVPAIPRHSNFTGLKVLVMDENGVSRMVTKGLLVHLGCEVTTVSSNEECLRVVSHEHKVVFMDVCMPGVENYQIALRIHEKFTKQRHQRPLLVALSGNTDKSTKEKCMSFGLDGVLLKPVSLDNIRDVLSDLLEPRVLYEGM
modifications: Alexa Fluor 488 succinimidyl-ester label where used as the labeled partner in MST
notes: ETR1, Arabidopsis thaliana, full-length receptor; source: recombinant, expressed and purified as described in Milić et al., 2018, in FosCholine-16
On to B1, for which the Kd is 177 nM and 217 nM in series [1]; 326 nM in series [2]; 169 nM in series [3]; 491 nM in series [4].

Regarding B2, the Kd in series [5] amounted to 161 nM; in series [6], 147 nM; in series [2] it was 96 nM; in series [3], 165 nM; in series [7] it was 145 nM.
